Measurements: publication PMC8298602 (2021)

Key:
[1] = biological target: Nedd^335-455pS342 + pT367 (human, UniProt Q96PU5 335-455, S448A, phosphoserine at 342, phosphothreonine at 367); test: AUC
[2] = biological target: Nedd^335-455pT367 + pS448 (human, UniProt Q96PU5 335-455, S342A, phosphothreonine at 367, phosphoserine at 448); test: AUC

B1: 14-3-3η (natural protein)
chain: MGDREQLLQRARLAEQAERYDDMASAMKAVTELNEPLSNEDRNLLSVAYKNVVGARRSSWRVISSIEQKTMADGNEKKLEKVKAYREKIEKELETVCNDVLSLLDKFLIKNCNDFQYESKVFYLKMKGDYYRYLAEVASGEKKNSVVEASEAAYKEAFEISKEQMQPTHPIRLGLALNFSVFYYEIQNAPEQACLLAKQAFDDAIAELDTLNEDSYKDSTLIMQLLRDNLTLWTSDQQDEEAGEGN
Kd [1]: 200 nM | Kd [2]: 170 nM
